From US12195558B2, “Targeted delivery system and methods of use therefor” (SANFORD BURNHAM PREBYS MEDICAL DISCOVERY INSTITUTE, priority 2015, dated 2025)
Bridge positions count the residues as written; N and C are the ends. Ends that are not written are not given here.

Experiments:
p32 [1] = biological target: T1, p32 (Homo sapiens, UniProt Q07021); test: Fluorescence polarization assay with synthetic peptides on p32; format: binding; conditions: for inhibition of binding of labeled TT1 to P32 by unlabeled peptide: competition, fluorescence polarization
T1 construct: made in house; host or cells: E. coli Rosetta-gami-2 (Novagen)
T1 sequence (Q07021 74-282): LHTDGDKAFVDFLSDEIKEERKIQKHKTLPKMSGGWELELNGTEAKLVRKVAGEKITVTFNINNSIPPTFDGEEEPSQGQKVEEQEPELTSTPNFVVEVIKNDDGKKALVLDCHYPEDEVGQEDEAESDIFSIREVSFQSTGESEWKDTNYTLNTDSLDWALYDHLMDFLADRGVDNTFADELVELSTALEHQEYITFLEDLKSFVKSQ
Excerpt: (§1) FIGS. 4A and 4B are plots showing a comparison of the binding of LyP-1 (SEQ ID NO: 7; diamonds) and TT1 (SEQ ID NO: 3; squares) to p32 in a fluorescence polarization assay. […] NRP-1 was used as a control protein.
FIG. 5 is a plot showing that P32-TT1 (CKRGARSTC; SEQ ID NO: 3) and LyP-1 (SEQ ID NO: 7) peptides competed for binding to the P32 protein. […] Squares: p32-TT1; Diamonds: LyP-1; X: RPARPAR peptide (SEQ ID NO: 14).
(§2) An exemplary RGXRS (SEQ ID NO: 4) pentapeptide motif-containing peptide with the sequence CKRGARSTC (SEQ ID NO: 3) was designated as the […] and used it for further studies. Mutating any amino acid in the consensus motif of TT1 abolished the phage binding to p32. This new peptide conferred about 15-fold stronger phage binding to immobilized p32 protein than did the canonical LyP-1 peptide.

NRP-1 = NRP-1 (Homo sapiens, UniProt O14786); test: Fluorescence polarization assay on NRP-1 (control protein); format: binding; conditions: NRP-1 as control protein
Sequence of NRP-1 (O14786 22-923): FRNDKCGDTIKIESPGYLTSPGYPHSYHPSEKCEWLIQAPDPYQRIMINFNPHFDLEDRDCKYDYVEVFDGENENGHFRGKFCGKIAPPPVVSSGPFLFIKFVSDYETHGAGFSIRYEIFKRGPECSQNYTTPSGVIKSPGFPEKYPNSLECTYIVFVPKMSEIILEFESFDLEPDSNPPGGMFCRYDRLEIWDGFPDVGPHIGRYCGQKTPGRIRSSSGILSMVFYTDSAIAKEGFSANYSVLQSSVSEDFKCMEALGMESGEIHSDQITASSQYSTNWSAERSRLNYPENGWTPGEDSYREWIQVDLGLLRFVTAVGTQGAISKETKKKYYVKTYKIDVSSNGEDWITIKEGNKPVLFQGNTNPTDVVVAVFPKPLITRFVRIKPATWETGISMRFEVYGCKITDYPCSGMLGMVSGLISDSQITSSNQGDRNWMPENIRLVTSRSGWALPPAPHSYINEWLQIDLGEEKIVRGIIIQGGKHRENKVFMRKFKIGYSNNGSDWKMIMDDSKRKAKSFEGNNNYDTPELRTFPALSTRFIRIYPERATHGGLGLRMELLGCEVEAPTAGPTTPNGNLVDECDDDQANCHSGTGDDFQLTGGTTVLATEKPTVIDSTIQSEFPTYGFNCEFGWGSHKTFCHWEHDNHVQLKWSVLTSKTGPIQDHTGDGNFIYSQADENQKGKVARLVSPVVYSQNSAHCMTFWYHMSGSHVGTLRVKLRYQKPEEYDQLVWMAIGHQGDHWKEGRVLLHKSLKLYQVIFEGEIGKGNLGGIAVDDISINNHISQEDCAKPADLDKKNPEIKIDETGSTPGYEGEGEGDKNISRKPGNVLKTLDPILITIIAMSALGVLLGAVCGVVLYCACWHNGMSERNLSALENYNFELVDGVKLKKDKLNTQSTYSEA
Excerpt: as §1

mitochondrial membranes = conditions: significantly less than the concentration required to kill eukaryotic cells; cited from earlier work
atherosclerotic plaques = test: Homing to atherosclerotic plaques in ApoE null mice on high-fat diet; format: in vivo; conditions: 100 mg FAM labeled peptide i.v., one hour
Description: ApoE null mice that had been kept on a high-fat diet were intravenously injected with […] of the FAM labeled peptides. One hour later, the mice were perfused through the heart under anesthesia, and tissues were collected. The panels show accumulation of FAM labeled peptides visualized with UV excitation. The center two and right two panels show atherosclerotic aortas that were sectioned at the aortic root level and examined by confocal microscopy.

[2] = tested on: orthotopic MCF10CA1a breast tumor xenografts; test: Tumor homing and penetration of peptide-conjugated nanoworms (NWs); format: in vivo, athymic nude mice
Description: FIG. 12 is a fluorescent micrograph showing tumor homing of linear TT1-NWs. Tumor-bearing mice were intravenously injected with FAM-LinTT1-coated NWs (7.5 mg iron/kg) and allowed to circulate for 5 hours. The mice were perfused through the heart with PBS, and tumors and organs were collected and processed for fluorescence microscopy. The left panel is a representative confocal microscopy image from tumors in mice. […]
FIG. 13 is a bar graph showing quantification of the homing of various peptide-coated NWs. […] Quantification of fluorescence was done with ImageJ software (available from the website of the United States National Institutes of Health). In addition to the tumors, NWs were detected in the liver and spleen, which non-specifically capture nanoparticles regardless of their peptide coating. […]
FIG. 15 is a bar graph showing tumor accumulation of NWs coated with chimeric peptides consisting of a homing peptide and pro-apoptotic peptide. Quantification of NW fluorescence was done with ImageJ software. […]
In vivo peptide homing. […] After 5-6 hours of NW circulation the mice were euthanized by cardiac perfusion with PBS under anesthesia, and tumors and organs were dissected and analyzed for particle homing.
Immunofluorescence. […] The primary antibody was detected with Alexa 594-labeled goat anti-rat secondary antibody (1:1000; Molecular Probes). […]

orthotopic breast tumors = conditions: systemically administered; cited from earlier work
p32 [3] = biological target: T1, p32; test: Binding of peptide-displaying T7 phage to p32-coated magnetic beads; conditions: p32-coated magnetic beads
Description: FIG. 10 is a bar graph showing that the p32 binding of the RGXR(S/T) motif (SEQ ID NOs: 4 and 5) in the exemplary TT1 peptide (SEQ ID NO: 3) was not dependent on the cyclic structure and compatible with flanking sequences. Phage clones displaying the indicated peptides were incubated in p32-coated magnetic microbeads. After washing to remove non-bound phage, specifically bound phage were quantified.
Milligram quantities of recombinant His-tagged p32 protein were expressed in E. coli and coated onto Ni-NTA magnetic beads, and biopanning was performed using two T7 bacteriophage peptide libraries (cyclic Cx7C and linear X7 library).
Variant peptide-encoding genomic DNA of phage was sequenced and analyzed for the presence of consensus motifs. After two rounds of selection, both linear and cyclic libraries converged to contain an RGXRS (SEQ ID NO: 4) pentapeptide motif (see FIG. 2B). The binding of RGXRS (SEQ ID NO: 4)-displaying phage to p32 was specific, as these phage bound to magnetic beads coated with p32 protein and not to beads coated with ligand-binding b1b2 domain of the cell and tissue penetration receptor NRP-1 or BSA (see FIG. 3).
as §2

## RPARPAR [reference compound]
p32 [1]
  inhibition of binding of labeled TT1 to P32 by unlabeled peptide: not
NRP-1
  binding to NRP-1 in fluorescence polarization assay (in words): avidly bound to NRP-1

## KLAKLAKKLAKLAK (also: D-amino acids, positions not given here) [D(KLAKLAK)2]
Mitochondrial membranes
  concentration inducing marked mitochondrial swelling: 10 µM

## CGNKRTRGC (disulfide 1-9 (inferred)) [LyP-1, reference compound]
p32 [1]
  inhibition of binding of labeled TT1 to P32 by unlabeled peptide: could be inhibited
Atherosclerotic plaques
  homing to and penetration into plaque tissue: seen inside plaques
[2]; homing peptide-D[KLAKLAK]2 chimeric peptide on NWs
  tumor homing and extravascular penetration of homing peptide-D[KLAKLAK]2 NWs (in words): more effective than the CGKRK
Orthotopic breast tumors
  homing to and penetration of orthotopic breast tumors: efficiently home to and penetrate orthotopic breast tumors in vivo

## AKRGARSTA [LinTT1]
p32 [3]; listed as TT1 Peptide variant
  phage binding to p32 (in words): retains the binding activity
p32 [3]; listed as TT1 variant
  phage binding to p32 (in words): retained the binding activity
p32 [1]; method not stated at the place
  affinity for p32 (in words): low affinity for the receptor
[2]; 7.5 mg iron/kg i.v., 5 hours circulation
  tumor homing of peptide-coated NWs (in words): most effective peptide in the nanoparticle context

## CRGDKGPDC [iRGD]
Orthotopic breast tumors
  homing to and penetration of orthotopic breast tumors: efficiently home to and penetrate orthotopic breast tumors in vivo
